The values that follow come from publication PMC13190736.

Experiment [1] deals with staphylococcal enterotoxin C (SEC-2), wild type (Staphylococcus aureus) (UniProt P34071). Description: ELISA. In general terms: An ELISA detects its analyte on a solid surface through an enzyme-linked reagent.
For experiment [2] the target is unchanged. Briefly: SPR. (In general: In SPR one partner is held on a chip, and binding of the other changes the refractive index at the surface.)

B1: Nb C107 (VHH)
VHH: QVQLVESGGGLVQPGGSLRLSCAPSGSTSGIYASGWYRQVPGKPQEWLADISRGGSTKYADSVKGRFTISRDNAKNTVYLQMNSLKPEDTATYYCRVIDTLGAEYRGQGTQVTVSS
The term EC50 denotes the concentration at which the effect is half-maximal. A higher EC50 goes with lower potency in that assay. In experiment [1], B1 gave an EC50 of 2.5 nM.

B2: Nb C112 (VHH)
VHH: QVQLVESGGGLVQAGGSLRLSCTASERMYGIEMGWFRQAPGKERELVAAITWSGVVSHLQESVKGRFTISRDNPKKTVYLQMNSLKPEDTATYYCAGHRLQWASGYTRHDYGSWGQGTQVTVSS
As a reminder, the Kd is the free concentration of one partner at which half of the binding sites on the other are occupied at equilibrium, for simple one-to-one binding. A low value points to a tighter complex. In experiment [2], B2 registered a Kd of 0.179 nM. In other words, the sub-nanomolar range.
